Blank lines part the entries; values can stand above or below the sequence they belong to.
Columns and labels:
HLA-B*07:02 = assay: IEDB peptide-MHC binding, purified MHC/direct/fluorescence; filed as Kd, often an IC50 or EC50 that approximates it; ≥ and ≤ were set here for values at or beyond the usual limits of such assays
HLA-A*03:01 = assay: as above
HLA-A*01:01 = assay: as above
HLA-A*31:01 = assay: as above
HLA-A*02:01 [1] = assay: as above
HLA-B*40:01 = assay: as above
HLA-A*26:01 = assay: as above
HLA-A*69:01 = assay: as above
HLA-B*15:01 [2] = assay: as above
HLA-B*44:02 = assay: as above
HLA-B*08:01 = assay: as above
HLA-B*35:01 = assay: as above
HLA-B*58:01 = assay: as above
HLA-B*27:05 = assay: as above
HLA-A*24:03 = assay: as above
HLA-A*11:01 [3] = assay: as above
HLA-C*14:02 = assay: as above; conditions: source organism: Azotobacter vinelandii DJ
HLA-B*46:01 [4] = assay: as above
HLA-A*30:01 = assay: as above
HLA-B*57:01 [5] = assay: IEDB peptide-MHC binding, purified MHC/competitive/fluorescence; filed as Kd, often an IC50 or EC50 that approximates it; ≥ and ≤ were set here for values at or beyond the usual limits of such assays; conditions: source organism: Vibrio antiquarius
HLA-A*02:01 [6] = assay: as above; conditions: source organism: Vibrio antiquarius
HLA-A*02:03 = assay: as above; conditions: source organism: Vibrio antiquarius
HLA-A*02:06 = assay: as above; conditions: source organism: Vibrio antiquarius
HLA-B*15:01 [7] = assay: as above; conditions: source organism: Vibrio antiquarius
HLA-B*15:17 [8] = assay: as above; conditions: source organism: Vibrio antiquarius
HLA-A*11:01 [9] = assay: as above; conditions: source organism: Vibrio antiquarius
HLA-B*51:01 = assay: IEDB peptide-MHC binding, purified MHC/direct/fluorescence; filed as Kd, often an IC50 or EC50 that approximates it; ≥ and ≤ were set here for values at or beyond the usual limits of such assays; conditions: source organism: Vibrio parahaemolyticus AQ3810
HLA-B*18:01 = assay: as above
HLA-B*08:02 = assay: as above
HLA-A*29:02 [10] = assay: as above; conditions: source organism: Vibrio parahaemolyticus AQ3810
HLA-B*48:01 = assay: as above
HLA-A*29:02 [11] = assay: IEDB peptide-MHC binding, purified MHC/competitive/fluorescence; filed as Kd, often an IC50 or EC50 that approximates it; ≥ and ≤ were set here for values at or beyond the usual limits of such assays
HLA-C*15:02 = assay: IEDB peptide-MHC binding, purified MHC/direct/fluorescence; filed as Kd, often an IC50 or EC50 that approximates it; ≥ and ≤ were set here for values at or beyond the usual limits of such assays; conditions: source organism: Cryptosporidium parvum Iowa II
HLA-A*26:02 = assay: as above
HLA-B*46:01 [12] = assay: IEDB peptide-MHC binding, purified MHC/competitive/fluorescence; filed as Kd, often an IC50 or EC50 that approximates it; ≥ and ≤ were set here for values at or beyond the usual limits of such assays; conditions: source organism: Psychromonas sp. PRT-SC03
HLA-B*57:01 [13] = assay: IEDB peptide-MHC binding, purified MHC/direct/fluorescence; filed as Kd, often an IC50 or EC50 that approximates it; ≥ and ≤ were set here for values at or beyond the usual limits of such assays; conditions: source organism: Coxiella burnetii
HLA-A*68:02 = assay: as above; conditions: source organism: Coxiella burnetii
HLA-B*15:17 [14] = assay: as above; conditions: source organism: Coxiella burnetii
[15] = source organism: Escherichia coli O157:H7
[16] = source organism: Burkholderia mallei ATCC 23344
[17] = source organism: Burkholderia mallei
[18] = source organism: Giardia lamblia ATCC 50803
[19] = source organism: Pseudomonas aeruginosa
[20] = source organism: Ectopseudomonas mendocina
[21] = source organism: Vibrio parahaemolyticus
[22] = source organism: Vibrio parahaemolyticus AQ3810
[23] = source organism: Enterobacteria phage f1
[24] = source organism: Coxiella burnetii
[25] = source organism: Coxiella burnetii Q321

Kd (HLA-B*07:02; [15]): 11.7 µM
Kd (HLA-A*03:01; [15]): ≥ 20 µM
Kd (HLA-A*01:01; [15]): ≥ 20 µM
Kd (HLA-A*31:01; [15]): ≥ 20 µM
Kd (HLA-A*02:01 [1]; [15]): ≥ 20 µM
Kd (HLA-B*40:01; [15]): ≥ 20 µM
Kd (HLA-A*26:01; [15]): ≥ 20 µM
Kd (HLA-A*69:01; [15]): ≥ 20 µM
Kd (HLA-B*15:01 [2]; [15]): 0.93 µM
Kd (HLA-B*44:02; [15]): ≥ 20 µM
Kd (HLA-B*08:01; [15]): 3.84 µM
Kd (HLA-B*35:01; [15]): 0.937 µM
Kd (HLA-B*58:01; [15]): ≥ 20 µM
Kd (HLA-B*27:05; [15]): ≥ 20 µM
Kd (HLA-A*24:03; [15]): ≥ 20 µM
Kd (HLA-A*11:01 [3]; [15]): ≥ 20 µM
Sequence: ADLRFASEF

Sequence: AMYAPYGPF
Kd (HLA-C*14:02): 0.039 µM
Kd (HLA-B*07:02; [16]): 9 µM
Kd (HLA-B*15:01 [2]; [17]): ≤ 0.001 µM
Kd (HLA-B*46:01 [4]; [17]): 0.958 µM
Kd (HLA-B*35:01; [16]): 1.88 µM

Sequence: CYPRLWGVR
Kd (HLA-B*07:02; [18]): 9.36 µM
Kd (HLA-A*03:01; [18]): ≥ 20 µM
Kd (HLA-A*01:01; [18]): ≥ 20 µM
Kd (HLA-A*02:01 [1]; [18]): ≥ 20 µM
Kd (HLA-B*40:01; [18]): ≥ 20 µM
Kd (HLA-A*26:01; [18]): ≥ 20 µM
Kd (HLA-A*69:01; [18]): ≥ 20 µM
Kd (HLA-B*15:01 [2]; [18]): ≥ 20 µM
Kd (HLA-B*44:02; [18]): ≥ 20 µM
Kd (HLA-B*08:01; [18]): ≥ 20 µM
Kd (HLA-B*58:01; [18]): ≥ 20 µM
Kd (HLA-A*30:01; [18]): 5.83 µM
Kd (HLA-B*27:05; [18]): ≥ 20 µM
Kd (HLA-A*11:01 [3]; [18]): ≥ 10 µM

Sequence: EFDNYRGTI
Kd (HLA-B*07:02; [18]): ≥ 20 µM
Kd (HLA-A*03:01; [18]): ≥ 20 µM
Kd (HLA-A*01:01; [18]): ≥ 20 µM
Kd (HLA-A*31:01; [18]): ≥ 20 µM
Kd (HLA-A*02:01 [1]; [18]): ≥ 20 µM
Kd (HLA-B*40:01; [18]): 16.5 µM
Kd (HLA-A*26:01; [18]): ≥ 20 µM
Kd (HLA-A*69:01; [18]): ≥ 20 µM
Kd (HLA-B*15:01 [2]; [18]): ≥ 20 µM
Kd (HLA-B*44:02; [18]): ≥ 20 µM
Kd (HLA-B*08:01; [18]): ≥ 20 µM
Kd (HLA-B*58:01; [18]): ≥ 20 µM
Kd (HLA-A*30:01; [18]): 7.45 µM
Kd (HLA-B*27:05; [18]): ≥ 20 µM
Kd (HLA-A*11:01 [3]; [18]): ≥ 20 µM

Kd (HLA-B*07:02; [19]): 7.92 µM
Kd (HLA-A*03:01; [20]): ≥ 20 µM
Kd (HLA-A*01:01; [19]): 7.32 µM
Kd (HLA-A*31:01; [20]): ≥ 20 µM
Kd (HLA-A*02:01 [1]; [19]): 18 µM
Kd (HLA-B*40:01; [19]): 8.72 µM
Kd (HLA-A*26:01; [20]): ≥ 20 µM
Kd (HLA-A*69:01; [20]): ≥ 20 µM
Kd (HLA-B*15:01 [2]; [20]): ≥ 20 µM
Kd (HLA-B*08:01; [19]): 5.3 µM
Kd (HLA-B*35:01; [19]): 0.797 µM
Kd (HLA-B*58:01; [20]): ≥ 20 µM
Kd (HLA-B*27:05; [20]): ≥ 20 µM
Kd (HLA-A*24:03; [20]): ≥ 20 µM
Kd (HLA-A*11:01 [3]; [20]): ≥ 20 µM
Sequence: FSDARLAKL

Sequence: LVAPHMAMM
Kd (HLA-B*57:01 [5]): 1.13 µM
Kd (HLA-A*02:01 [6]): 3.41 µM
Kd (HLA-A*02:03): 1.14 µM
Kd (HLA-A*02:06): 0.0532 µM
Kd (HLA-B*15:01 [7]): 0.0965 µM
Kd (HLA-B*15:17 [8]): 0.239 µM
Kd (HLA-A*11:01 [9]): ≥ 20 µM
Kd (HLA-A*03:01; [21]): ≥ 20 µM
Kd (HLA-A*01:01; [21]): ≥ 20 µM
Kd (HLA-B*51:01): ≥ 20 µM
Kd (HLA-B*18:01; [21]): ≥ 20 µM
Kd (HLA-A*31:01; [21]): ≥ 20 µM
Kd (HLA-B*40:01; [21]): ≥ 20 µM
Kd (HLA-B*08:02; [22]): ≥ 20 µM
Kd (HLA-A*29:02 [10]): 0.32 µM
Kd (HLA-B*46:01 [4]; [21]): 11 µM
Kd (HLA-B*58:01; [22]): 0.81 µM
Kd (HLA-A*30:01; [22]): ≥ 20 µM
Kd (HLA-B*48:01; [21]): ≥ 20 µM
Kd (HLA-B*27:05; [21]): ≥ 20 µM

Sequence: PVPDFPYRY
Kd (HLA-A*29:02 [11]; source organism: Entamoeba dispar SAW760): 0.0068 µM

Sequence: SFIPIFYQF
Kd (HLA-A*29:02 [11]; source organism: Cryptosporidium parvum Iowa II): 0.0022 µM
Kd (HLA-C*15:02): ≥ 20 µM

Sequence: STYQPLPLY
Kd (HLA-B*07:02; [17]): ≥ 20 µM
Kd (HLA-A*03:01; [17]): ≥ 20 µM
Kd (HLA-A*01:01; [17]): 0.971 µM
Kd (HLA-A*02:01 [1]; [17]): ≥ 20 µM
Kd (HLA-A*26:02; [16]): ≤ 0.001 µM
Kd (HLA-A*26:01; [16]): 0.039 µM
Kd (HLA-B*15:01 [2]; [17]): 0.0245 µM
Kd (HLA-B*58:01; [17]): 0.195 µM
Kd (HLA-B*27:05; [17]): ≥ 20 µM

Sequence: TFMYVFSTF
Kd (HLA-B*46:01 [12]): ≥ 20 µM
Kd (HLA-B*07:02; [23]): ≥ 20 µM
Kd (HLA-A*03:01; [23]): ≥ 20 µM
Kd (HLA-A*01:01; [23]): ≥ 20 µM
Kd (HLA-A*02:01 [1]; source organism: Inovirus M13): 8.33 µM
Kd (HLA-B*40:01; [23]): ≥ 20 µM
Kd (HLA-A*26:01; [23]): ≥ 20 µM
Kd (HLA-A*69:01; [23]): ≥ 20 µM
Kd (HLA-B*15:01 [2]; source organism: Inovirus M13): 0.695 µM
Kd (HLA-B*08:01; [23]): ≥ 20 µM
Kd (HLA-B*35:01; source organism: Inovirus M13): 0.0806 µM
Kd (HLA-B*58:01; source organism: Inovirus M13): 1.1 µM
Kd (HLA-B*27:05; [23]): ≥ 20 µM
Kd (HLA-A*24:03; source organism: Inovirus M13): 0.00639 µM
Kd (HLA-A*11:01 [3]; [23]): ≥ 20 µM

Sequence: VFFKQWFEK
Kd (HLA-B*07:02; [24]): ≥ 20 µM
Kd (HLA-B*57:01 [13]): ≥ 20 µM
Kd (HLA-A*03:01; [24]): 0.312 µM
Kd (HLA-A*01:01; [24]): ≥ 20 µM
Kd (HLA-B*18:01; [24]): ≥ 20 µM
Kd (HLA-A*31:01; [24]): 0.066 µM
Kd (HLA-A*02:01 [1]; [24]): ≥ 20 µM
Kd (HLA-A*26:02; [25]): ≥ 20 µM
Kd (HLA-B*40:01; [24]): ≥ 20 µM
Kd (HLA-A*68:02): ≥ 20 µM
Kd (HLA-B*08:02; [25]): ≥ 20 µM
Kd (HLA-A*26:01; [25]): ≥ 20 µM
Kd (HLA-A*69:01; [24]): ≥ 20 µM
Kd (HLA-B*15:01 [2]; [24]): ≥ 20 µM
Kd (HLA-B*46:01 [4]; [24]): ≥ 20 µM
Kd (HLA-B*15:17 [14]): ≥ 20 µM
Kd (HLA-B*08:01; [25]): ≥ 20 µM
Kd (HLA-B*58:01; [24]): ≥ 20 µM
Kd (HLA-B*48:01; [24]): ≥ 20 µM
Kd (HLA-B*27:05; [24]): ≥ 20 µM
Kd (HLA-A*11:01 [3]; [24]): 0.163 µM

From the Immune Epitope Database (IEDB)
